In assay [1] the target is full length gp-340 (exon 1-54) expressed on the surface of 293 cells transfected with pDEST-DMBT1 (clone 1D4) (UniProt Q9UGM3). As to the kind of experiment: cell-based or functional assay.
For assay [2], the target named is endogenous cell-associated gp-340 on human cell lines (AGS, VK2E6E7, Endo1E6E7, Ect1E6E7, HEC1A, untransfected 293) and human vaginal and cervical tissue (human) (UniProt Q9UGM3). As to the kind of experiment: cell-based or functional assay.

The values that follow come from patent US20110086028A1.

full length gp-340 (exon 1-54) expressed on the surface of 293 cells transfected with pDEST-DMBT1 (clone 1D4), sequence (Q9UGM3 20-2413 limits assumed, change not shown): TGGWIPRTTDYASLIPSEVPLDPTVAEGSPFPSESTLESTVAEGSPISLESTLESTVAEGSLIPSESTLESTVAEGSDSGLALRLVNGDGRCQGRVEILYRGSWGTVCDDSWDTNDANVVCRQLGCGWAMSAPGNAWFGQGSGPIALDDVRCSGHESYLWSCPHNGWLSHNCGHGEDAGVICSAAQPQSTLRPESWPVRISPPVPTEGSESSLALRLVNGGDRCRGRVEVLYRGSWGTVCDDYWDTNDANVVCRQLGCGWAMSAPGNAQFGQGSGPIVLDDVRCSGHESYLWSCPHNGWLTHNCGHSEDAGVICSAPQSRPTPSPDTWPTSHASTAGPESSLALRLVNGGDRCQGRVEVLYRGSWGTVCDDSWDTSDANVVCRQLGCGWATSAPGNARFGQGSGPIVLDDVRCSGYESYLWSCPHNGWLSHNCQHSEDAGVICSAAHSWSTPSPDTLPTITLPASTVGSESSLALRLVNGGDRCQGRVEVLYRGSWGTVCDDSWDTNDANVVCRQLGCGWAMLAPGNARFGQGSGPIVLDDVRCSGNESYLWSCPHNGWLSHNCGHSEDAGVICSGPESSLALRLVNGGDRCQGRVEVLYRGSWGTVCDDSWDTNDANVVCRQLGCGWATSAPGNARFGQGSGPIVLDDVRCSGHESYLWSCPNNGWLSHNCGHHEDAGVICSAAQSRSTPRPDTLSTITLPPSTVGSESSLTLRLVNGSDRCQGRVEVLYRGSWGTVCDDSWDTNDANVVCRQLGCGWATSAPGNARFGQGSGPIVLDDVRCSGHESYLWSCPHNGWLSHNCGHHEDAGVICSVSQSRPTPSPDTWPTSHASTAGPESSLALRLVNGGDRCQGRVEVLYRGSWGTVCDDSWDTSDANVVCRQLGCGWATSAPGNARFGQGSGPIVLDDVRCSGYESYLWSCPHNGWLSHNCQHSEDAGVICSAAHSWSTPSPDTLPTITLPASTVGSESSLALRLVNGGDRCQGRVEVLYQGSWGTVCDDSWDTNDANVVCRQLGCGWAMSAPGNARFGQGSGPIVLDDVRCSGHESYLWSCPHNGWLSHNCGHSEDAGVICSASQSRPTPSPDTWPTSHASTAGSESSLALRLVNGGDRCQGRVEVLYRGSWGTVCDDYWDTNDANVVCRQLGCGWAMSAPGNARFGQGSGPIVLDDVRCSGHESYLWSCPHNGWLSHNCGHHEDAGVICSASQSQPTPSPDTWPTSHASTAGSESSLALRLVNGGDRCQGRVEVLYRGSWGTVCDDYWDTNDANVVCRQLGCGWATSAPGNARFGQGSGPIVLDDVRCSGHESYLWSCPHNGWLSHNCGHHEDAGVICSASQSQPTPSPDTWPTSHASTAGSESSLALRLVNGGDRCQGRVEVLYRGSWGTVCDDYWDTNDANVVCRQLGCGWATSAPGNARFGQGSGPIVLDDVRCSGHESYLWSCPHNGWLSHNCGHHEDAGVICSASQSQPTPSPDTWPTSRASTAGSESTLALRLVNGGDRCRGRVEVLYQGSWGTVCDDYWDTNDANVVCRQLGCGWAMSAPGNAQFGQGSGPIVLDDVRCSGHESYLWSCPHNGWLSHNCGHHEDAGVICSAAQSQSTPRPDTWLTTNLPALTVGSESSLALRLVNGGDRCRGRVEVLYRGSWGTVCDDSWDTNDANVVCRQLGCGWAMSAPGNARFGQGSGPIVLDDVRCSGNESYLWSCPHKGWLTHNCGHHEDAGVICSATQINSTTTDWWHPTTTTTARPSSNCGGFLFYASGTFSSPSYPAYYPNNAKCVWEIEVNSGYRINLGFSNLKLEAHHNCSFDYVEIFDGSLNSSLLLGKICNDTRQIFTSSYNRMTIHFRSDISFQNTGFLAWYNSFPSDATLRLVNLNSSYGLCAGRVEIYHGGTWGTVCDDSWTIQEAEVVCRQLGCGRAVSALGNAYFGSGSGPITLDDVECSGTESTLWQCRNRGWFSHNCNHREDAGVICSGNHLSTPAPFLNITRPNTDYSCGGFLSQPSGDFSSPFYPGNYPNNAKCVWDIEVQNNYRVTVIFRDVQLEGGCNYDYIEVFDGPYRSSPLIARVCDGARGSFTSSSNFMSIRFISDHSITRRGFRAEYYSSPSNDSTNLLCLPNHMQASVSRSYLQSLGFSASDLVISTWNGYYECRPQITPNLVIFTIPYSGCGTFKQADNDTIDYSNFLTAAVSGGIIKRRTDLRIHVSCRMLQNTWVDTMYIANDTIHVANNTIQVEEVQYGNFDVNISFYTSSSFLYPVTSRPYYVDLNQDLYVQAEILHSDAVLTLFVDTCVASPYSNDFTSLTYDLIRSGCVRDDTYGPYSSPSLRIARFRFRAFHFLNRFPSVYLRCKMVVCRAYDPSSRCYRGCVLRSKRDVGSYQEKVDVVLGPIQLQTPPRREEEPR
endogenous cell-associated gp-340 on human cell lines (AGS, VK2E6E7, Endo1E6E7, Ect1E6E7, HEC1A, untransfected 293) and human vaginal and cervical tissue (human), sequence (Q9UGM3 20-2413): as the sequence (Q9UGM3 20-2413 limits assumed, change not shown) above

As for “HIV-1 Env (gp120) of primary M-tropic strain BL2, on virus particles”, in assay [1], the TCID50 of added virus in trans-infection to PHA-blasts, gp-340 expressing 293 cells against non-exogenously expressing 293 cells was determined as 6 fold; the mean P24 in 6 wells, clone 1D4 without peptide 6284, 0.11 IU was 184; the mean P24 in 6 wells, clone 1D4 without peptide 6284, 0.33 IU worked out at 239; the percentage of wells infected at 0.11 IU of HIV added (trans-infection, gp-340 expressing 293 cells) stood at 50%. Also, in assay [1], the percentage of wells infected at 0.33 IU of HIV added (trans-infection, gp-340 expressing 293 cells) amounted to 100%. Moreover, in assay [2], the enhancement in viral infectivity (AGS cell trans-infection) is 6 fold and the viral input at which cells were infected in 50% of the wells (AGS cell trans-infection) was 0.08 IU.
